Laboratory results reported in the Human Domainome abundance scans (Beltran et al. 2025).
± gives the uncertainty stated by the source.

B1: V(D)J recombination-activating protein 2, residues 415 to 491; numbered along this chain, P55895 (parent)
chain: YWITCCPTCDVDINTWVPFYSTELNKPAMIYCSHGDGHWVHAQCMDLAERTLIHLSAGSNKYYCNEHVEIARALHTP

Variants of: B1
Experiment: abundance fitness (aPCA) (normalised: wild type 0, dead -1); higher = more abundant; growth selection in yeast, the domain comes from the species named
Settings: Homo sapiens

In order of falling abundance fitness:
1. T22M  0.389 ± 0.36
2. L24E  0.296 ± 0.38
3. E69M  0.18 ± 0.27
4. R72A  0.138 ± 0.11
5. N25Q  0.132 ± 0.24
6. D46K  0.122 ± 0.074
7. D10Q  0.121 ± 0.21
8. N25H  0.113 ± 0.31
9. I70D  0.112 ± 0.14
10. D46S  0.102 ± 0.055
11. T22S  0.096 ± 0.18
12. D46Q  0.085 ± 0.045
13. T76K  0.081 ± 0.094
14. S56A  0.078 ± 0.063
15. E69S  0.075 ± 0.11
16. V17Q  0.074 ± 0.19
17. R72S  0.073 ± 0.071
18. E69W  0.071 ± 0.23
19. S33A  0.069 ± 0.041
20. Y62W  0.067 ± 0.087
21. R50I  0.067 ± 0.11
22. T8E  0.058 ± 0.17
23. T76P  0.054 ± 0.11
24. S56Y  0.052 ± 0.12
25. D46V  0.046 ± 0.056
26. D46R  0.041 ± 0.031
27. R50H  0.037 ± 0.14
28. Y63I  0.036 ± 0.12
29. D46C  0.036 ± 0.083
30. D46L  0.031 ± 0.045
31. D10T  0.019 ± 0.21
32. I70R  0.015 ± 0.03
33. T4N  0.012 ± 0.091
34. R72P  0.01 ± 0.1
35. Y31L  0.005 ± 0.056
36. S56G  0.005 ± 0.037
37. S56V  0.005 ± 0.048
38. P7D  0.002 ± 0.28
39. E69G  0 ± 0.1
40. V68G  0 ± 0.091
41. I70F  -0.002 ± 0.091
42. V17S  -0.01 ± 0.2
43. S33F  -0.017 ± 0.061
44. V17R  -0.022 ± 0.13
45. N25W  -0.024 ± 0.2
46. R50D  -0.027 ± 0.096
47. P18A  -0.028 ± 0.25
48. D10G  -0.03 ± 0.13
49. E49D  -0.038 ± 0.083
50. S56H  -0.038 ± 0.14
51. Y31C  -0.039 ± 0.14
52. S56D  -0.04 ± 0.092
53. R72E  -0.042 ± 0.12
54. Y63A  -0.048 ± 0.061
55. T4K  -0.048 ± 0.069
56. D46E  -0.05 ± 0.075
57. Y63V  -0.051 ± 0.069
58. V17L  -0.056 ± 0.11
59. S33C  -0.057 ± 0.098
60. T76G  -0.057 ± 0.056
61. I13C  -0.059 ± 0.23
62. Y31H  -0.061 ± 0.18
63. P7L  -0.065 ± 0.2
64. Y1F  -0.07 ± 0.11
65. S56W  -0.07 ± 0.062
66. T76V  -0.074 ± 0.064
67. L24T  -0.081 ± 0.22
68. K26V  -0.084 ± 0.23
69. R72Q  -0.085 ± 0.12
70. Y20N  -0.09 ± 0.25
71. I13L  -0.098 ± 0.14
72. Y1L  -0.098 ± 0.087
73. Y1G  -0.102 ± 0.075
74. T15I  -0.104 ± 0.3
75. A28Q  -0.104 ± 0.15
76. S33M  -0.106 ± 0.057
77. A28K  -0.112 ± 0.3
78. S56I  -0.113 ± 0.13
79. V68K  -0.115 ± 0.14
80. S33H  -0.116 ± 0.13
81. V17W  -0.117 ± 0.15
82. I13W  -0.12 ± 0.23
83. T22D  -0.121 ± 0.39
84. T8K  -0.123 ± 0.17
85. E49L  -0.124 ± 0.044
86. T76N  -0.13 ± 0.13
87. I70K  -0.139 ± 0.12
88. E69V  -0.14 ± 0.2
89. T76I  -0.155 ± 0.14
90. L24I  -0.156 ± 0.25
91. T22A  -0.157 ± 0.41
92. W2K  -0.162 ± 0.13
93. V68A  -0.173 ± 0.14
94. P18H  -0.175 ± 0.3
95. T4M  -0.176 ± 0.08
96. K26Q  -0.179 ± 0.19
97. Y63S  -0.18 ± 0.095
98. T22F  -0.181 ± 0.16
99. T4Q  -0.185 ± 0.077
100. Y1W  -0.19 ± 0.037
101. I70H  -0.205 ± 0.23
102. A28M  -0.213 ± 0.28
103. A28T  -0.218 ± 0.28
104. V68N  -0.219 ± 0.4
105. D46F  -0.221 ± 0.11
106. W2E  -0.231 ± 0.076
107. Y31V  -0.241 ± 0.063
108. E49S  -0.243 ± 0.069
109. I13S  -0.264 ± 0.3
110. Y62I  -0.281 ± 0.097
111. E49W  -0.292 ± 0.071
112. N25C  -0.309 ± 0.15
113. A28D  -0.318 ± 0.13
114. Y31N  -0.322 ± 0.14
115. D10M  -0.325 ± 0.47
116. R72Y  -0.332 ± 0.16
117. V68Y  -0.335 ± 0.19
118. T15A  -0.341 ± 0.21
119. W2G  -0.342 ± 0.051
120. Y62V  -0.342 ± 0.09
121. N25Y  -0.344 ± 0.36
122. E49T  -0.345 ± 0.075
123. I13V  -0.35 ± 0.14
124. P18G  -0.36 ± 0.2
125. L47N  -0.364 ± 0.11
126. V17P  -0.375 ± 0.49
127. Y62H  -0.377 ± 0.14
128. W2R  -0.378 ± 0.054
129. Y20P  -0.378 ± 0.26
130. W2Q  -0.382 ± 0.14
131. Y20M  -0.383 ± 0.27
132. H67V  -0.387 ± 0.048
133. W2A  -0.39 ± 0.07
134. Y1H  -0.399 ± 0.18
135. L47R  -0.419 ± 0.042
136. P18Q  -0.425 ± 0.14
137. L47G  -0.458 ± 0.04
138. E49I  -0.468 ± 0.15
139. Y1R  -0.469 ± 0.24
140. H67W  -0.484 ± 0.055
141. H67F  -0.485 ± 0.1
142. Y62G  -0.495 ± 0.071
143. Y20S  -0.513 ± 0.14
144. L47K  -0.515 ± 0.086
145. Y20D  -0.525 ± 0.26
146. L24P  -0.56 ± 0.39
147. A42I  -0.563 ± 0.38
148. W16G  -0.565 ± 0.15
149. Y62K  -0.6 ± 0.21
150. A42Q  -0.605 ± 0.17
151. L47W  -0.611 ± 0.067
152. A42Y  -0.626 ± 0.4
153. T8W  -0.627 ± 0.41
154. E23H  -0.635 ± 0.31
155. Y62P  -0.67 ± 0.084
156. L47P  -0.684 ± 0.09
157. V11G  -0.697 ± 0.14
158. A42P  -0.717 ± 0.15
159. Y20V  -0.719 ± 0.29
160. A42T  -0.744 ± 0.12
161. V11R  -0.75 ± 0.37
162. E23C  -0.851 ± 0.42
163. W2V  -0.853 ± 0.11
164. A42E  -0.883 ± 0.14
165. E23F  -0.901 ± 0.34
166. E23R  -1.03 ± 0.24
167. V40W  -1.16 ± 0.23
